We go through two molecules from patent publication US7598290B2, “Cytotoxic agents comprising new C-2 modified taxanes” (priority 2005, dated 2009).

The test system of test [1] is Human colon tumor cells, COLO 205. The test is described as follows: In vitro potency and specificity, WST-8 assay, antigen positive COLO 205 cells. It counts as cell-based. Conditions: COLO 205 (antigen positive), 4 days incubation. On the procedure: (§1) In vitro potency and specificity of huC242-Taxoid conjugate. Samples of free taxoid or huC242-Taxoid conjugate were added to a 96-well flat bottomed tissue culture plate and titrated using serial dilutions ranging from 1×10^−12 M to 3×10^−7 M. Human colon tumor cells, COLO 205, or human melanoma cells, A-375, were added to the wells in such a way that there were triplicate samples for each drug concentration for each cell line. The plates were incubated at 37° C. in an atmosphere of 5% CO2 for 4 days.
(§2) At the end of the incubation period, 20 μl of the tetrazolium reagent WST-8 (2-(2-methoxy-nitrophenyl)-3-(4-nitrophenyl)-5-(2,4-disulfophenyl)-2-tetrazolium, monosodium salt]) was added to each well, and the plates were returned to the incubator for 2 hours. The absorbance in each well of the plates was then measured using the Molecular Devices plate reader at 450 nm. Surviving fraction of cells at each concentration of taxoid or conjugate are plotted in FIGS. 2 a,b.
In general terms: Formazan colour is commonly taken as a measure of viable cells.

The subject of test [2] is human melanoma cells, A-375. The test is described as follows: In vitro potency and specificity, WST-8 assay, antigen negative A-375 cells. To be noted: for IC50: A-375 (antigen negative), 4 days incubation, WST-8. Type of test: cell-based. On the procedure: as §1, §2

`CSSC(C)(C)CCC(=O)O[C@H]1C(=O)[C@@]2(C)[C@H]([C@H](OC(=O)c3ccco3)[C@]3(O)C[C@H](OC(=O)[C@H](O)[C@@H](NC(=O)OC(C)(C)C)c4ccco4)C(C)=C1C3(C)C)[C@]1(OC(C)=O)CO[C@@H]1C[C@@H]2O` [IGT-16-141, 3′-dephenyl-3′-(2-furyl)-2-debenzoyl-2-(2-furoyl)-10-(4,4-dimethyl-4-methyldithiobutanoyl)-docetaxel]: the 50% inhibitory concentration (IC50) (commonly the concentration at which inhibition is half-maximal) in test [1] (Homo sapiens, 96 h) is approximately 0.8 nM; in test [2] (Homo sapiens, 96 h) it was approximately 0.8 nM.

B1: huC242-taxoid (conjugate, chains of the INN, looked up)
VH: QVQLVQSGAEVKKPGETVKISCKASDYTFTYYGMNWVKQAPGQGLKWMGWIDTTTGEPTYAQKFQGRIAFSLETSASTAYLQIKSLKSEDTATYFCARRGPYNWYFDVWGQGTTVTVSS
VL: DIVMTQSPLSVPVTPGEPVSISCRSSKSLLHSNGNTYLYWFLQRPGQSPQLLIYRMSNLVSGVPDRFSGSGSGTAFTLRISRVEAEDVGVYYCLQHLEYPFTFGPGTKLELK
modifications: taxoid payload conjugate
Take B1: the results for the IC50 in test [1] and in test [2] were 0.31 nM and 29 nM, respectively. The “antigen negative cells less sensitive than COLO 205” value in test [2] (A-375 versus COLO 205) was “about 94 fold”.
